In publication doi:10.1101/2025.10.22.683813 (bioRxiv, 2025):

Target: the molecule itself
Assay: SEC

B1: NC-4 nucleocapsid subunit (other)
chain: MGNARTRRRERRAEKQAQWKAANAGAGAGAMATPHFDYNASVVSKGLANLSLELRKPVSFDIITADTLEQAIERAGTKHGNKGWEAALSAIEMANLYKSLRGTEHHHHLHGSSIEIYEGKLTAEGLRFGIVASRFNHTLVDRLVEGAIDCIVRHGGRGEDITLVRVPGAWEIPVAADELARKEDIDAVIAFGDLIRG
  binding result: binds
